Test results reported in patent US20180155451A1 (published 2018).

T1: FcγRIIb (human, UniProt P31994 43-217)
T1 construct: extracellular domain; also called 2b; FcgRIIb
T1 sequence (looked up): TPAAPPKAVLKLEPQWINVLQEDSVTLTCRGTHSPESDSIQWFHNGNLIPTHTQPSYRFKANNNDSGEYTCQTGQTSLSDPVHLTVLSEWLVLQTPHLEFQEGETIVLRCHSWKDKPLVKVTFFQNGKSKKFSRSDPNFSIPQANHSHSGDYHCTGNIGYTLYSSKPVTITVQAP

T2: FcγRIIb extracellular domain with C-terminal His tag (human, UniProt P31994 43-217)
T2 construct: extracellular domain; also called 2b; FcgRIIb; not shown: His tag at the C terminus
T2 sequence (looked up): T1 sequence (looked up)

B1: GpH7-A5/GpH7-B3 variant S267_06M/GpL16-k0 (antibody, human IgG1, kappa)
heavy 1: not shown
heavy 2: not shown
light: DIVMTQSPLSLPVTPGEPASISCQASESLVHSNRNTYLHWYLQKPGQSPQLLIYKVSNRFSGVPDRFSGSGSGTDFTLKISRVEAEDVGVYYCSQNTHVPPTFGQGTKVEIERTVAAPSVFIFPPSDEQLKSGTASVVCLLNNFYPREAKVQWKVDNALQSGNSQESVTEQDSKDSTYSLSSTLTLSKADYEKHKVYACEVTHQGLSSPVTKSFNRGEC
notes: also called He Ab S267_06M
B2: GpH7-A5/GpH7-B3 variant T335_16H/GpL16-k0 (antibody, human IgG1, kappa)
heavy 1: not shown
heavy 2: not shown
light: B1 light
notes: also called He Ab T335_16H
B3: GpH7-A5/GpH7-B3 variant V266_06M/GpL16-k0 (antibody, human IgG1, kappa)
heavy 1: not shown
heavy 2: not shown
light: B1 light
notes: also called He Ab V266_06M
B4: GpH7-A5/GpH7-B3 variant T335_18N/GpL16-k0 (antibody, human IgG1, kappa)
heavy 1: not shown
heavy 2: not shown
light: B1 light
notes: also called He Ab T335_18N
B5: GpH7-A5/GpH7-B3 variant S337_16H/GpL16-k0 (antibody, human IgG1, kappa)
heavy 1: not shown
heavy 2: not shown
light: B1 light
notes: also called He Ab S337_16H
B6: GpH7-A5/GpH7-B3 variant S337_15Y/GpL16-k0 (antibody, human IgG1, kappa)
heavy 1: not shown
heavy 2: not shown
light: B1 light
notes: also called He Ab S337_15Y
B7: GpH7-A5/GpH7-B3 variant T335_19Q/GpL16-k0 (antibody, human IgG1, kappa)
heavy 1: not shown
heavy 2: not shown
light: B1 light
notes: also called He Ab T335_19Q
B8: GpH7-A5/GpH7-B3 variant T335_13S/GpL16-k0 (antibody, human IgG1, kappa)
heavy 1: not shown
heavy 2: not shown
light: B1 light
notes: also called He Ab T335_13S
B9: GpH7-A5/GpH7-B3 variant S337_07I/GpL16-k0 (antibody, human IgG1, kappa)
heavy 1: not shown
heavy 2: not shown
light: B1 light
notes: also called He Ab S337_07I
B10: GpH7-A5/GpH7-B3 variant T335_07I/GpL16-k0 (antibody, human IgG1, kappa)
heavy 1: not shown
heavy 2: not shown
light: B1 light
notes: also called He Ab T335_07I
B11: GpH7-A5/GpH7-B3 variant S324_06M/GpL16-k0 (antibody, human IgG1, kappa)
heavy 1: not shown
heavy 2: not shown
light: B1 light
notes: also called He Ab S324_06M
B12: GpH7-A5/GpH7-B3 variant T335_15Y/GpL16-k0 (antibody, human IgG1, kappa)
heavy 1: not shown
heavy 2: not shown
light: B1 light
notes: also called He Ab T335_15Y
B13: GpH7-A5/GpH7-B3 variant S337_08L/GpL16-k0 (antibody, human IgG1, kappa)
heavy 1: not shown
heavy 2: not shown
light: B1 light
notes: also called He Ab S337_08L
B14: GpH7-A5/GpH7-B3 variant S337_18N/GpL16-k0 (antibody, human IgG1, kappa)
heavy 1: not shown
heavy 2: not shown
light: B1 light
notes: also called He Ab S337_18N
B15: GpH7-A5/GpH7-B3 variant T335_20W/GpL16-k0 (antibody, human IgG1, kappa)
heavy 1: not shown
heavy 2: not shown
light: B1 light
notes: also called He Ab T335_20W
B16: GpH7-A5/GpH7-B3 variant T335_10E/GpL16-k0 (antibody, human IgG1, kappa)
heavy 1: not shown
heavy 2: not shown
light: B1 light
notes: also called He Ab T335_10E
B17: GpH7-A5/GpH7-B3 variant S267_19Q/GpL16-k0 (antibody, human IgG1, kappa)
heavy 1: not shown
heavy 2: not shown
light: B1 light
notes: also called He Ab S267_19Q
B18: GpH7-A5/GpH7-B3 variant S337_20W/GpL16-k0 (antibody, human IgG1, kappa)
heavy 1: not shown
heavy 2: not shown
light: B1 light
notes: also called He Ab S337_20W
B19: GpH7-A5/GpH7-B3 variant Y296_20W/GpL16-k0 (antibody, human IgG1, kappa)
heavy 1: not shown
heavy 2: not shown
light: B1 light
notes: also called He Ab Y296_20W
B20: GpH7-A5/GpH7-B3 variant S298_06M/GpL16-k0 (antibody, human IgG1, kappa)
heavy 1: not shown
heavy 2: not shown
light: B1 light
notes: also called He Ab S298_06M
B21: GpH7-A5/GpH7-B3 variant V266_01G/GpL16-k0 (antibody, human IgG1, kappa)
heavy 1: not shown
heavy 2: not shown
light: B1 light
notes: He Ab: mutation in the GpH7-B3 H chain only; also called He Ab
B22: GpH7-A5/GpH7-B3 variant A327_18N/GpL16-k0 (antibody, human IgG1, kappa)
heavy 1: not shown
heavy 2: not shown
light: B1 light
notes: as for B21
B23: GpH7-A5/GpH7-B3 variant D265_11K/GpL16-k0 (antibody, human IgG1, kappa)
heavy 1: not shown
heavy 2: not shown
light: B1 light
notes: as for B21
B24: GpH7-A5/GpH7-B3 variant D265_06M/GpL16-k0 (antibody, human IgG1, kappa)
heavy 1: not shown
heavy 2: not shown
light: B1 light
notes: as for B21
B25: GpH7-A5/GpH7-B3 variant A327_07I/GpL16-k0 (antibody, human IgG1, kappa)
heavy 1: not shown
heavy 2: not shown
light: B1 light
notes: as for B21
B26: GpH7-A5/GpH7-B3 variant D265_13S/GpL16-k0 (antibody, human IgG1, kappa)
heavy 1: not shown
heavy 2: not shown
light: B1 light
notes: as for B21
B27: GpH7-A5/GpH7-B3 variant D265_04F/GpL16-k0 (antibody, human IgG1, kappa)
heavy 1: not shown
heavy 2: not shown
light: B1 light
notes: as for B21
B28: GpH7-A5/GpH7-B3 variant D265_19Q/GpL16-k0 (antibody, human IgG1, kappa)
heavy 1: not shown
heavy 2: not shown
light: B1 light
notes: as for B21
B29: GpH7-A5/GpH7-B3 variant D265_02A/GpL16-k0 (antibody, human IgG1, kappa)
heavy 1: not shown
heavy 2: not shown
light: B1 light
notes: as for B21
B30: GpH7-A5/GpH7-B3 variant D265_14T/GpL16-k0 (antibody, human IgG1, kappa)
heavy 1: not shown
heavy 2: not shown
light: B1 light
notes: as for B21
B31: GpH7-A5/GpH7-B3 variant D265_15Y/GpL16-k0 (antibody, human IgG1, kappa)
heavy 1: not shown
heavy 2: not shown
light: B1 light
notes: as for B21
B32: GpH7-A5/GpH7-B3 variant D265_12R/GpL16-k0 (antibody, human IgG1, kappa)
heavy 1: not shown
heavy 2: not shown
light: B1 light
notes: as for B21
B33: GpH7-A5/GpH7-B3 variant V266_20W/GpL16-k0 (antibody, human IgG1, kappa)
heavy 1: not shown
heavy 2: not shown
light: B1 light
notes: as for B21
B34: GpH7-A5/GpH7-B3 variant A327_09D/GpL16-k0 (antibody, human IgG1, kappa)
heavy 1: not shown
heavy 2: not shown
light: B1 light
notes: as for B21
B35: GpH7-A5/GpH7-B3 variant D265_08L/GpL16-k0 (antibody, human IgG1, kappa)
heavy 1: not shown
heavy 2: not shown
light: B1 light
notes: as for B21
B36: GpH7-A5/GpH7-B3 variant A330_01G/GpL16-k0 (antibody, human IgG1, kappa)
heavy 1: not shown
heavy 2: not shown
light: B1 light
notes: as for B21
B37: GpH7-A5/GpH7-B3 variant D265_16H/GpL16-k0 (antibody, human IgG1, kappa)
heavy 1: not shown
heavy 2: not shown
light: B1 light
notes: as for B21
B38: GpH7-A5/GpH7-B3 variant D265_03V/GpL16-k0 (antibody, human IgG1, kappa)
heavy 1: not shown
heavy 2: not shown
light: B1 light
notes: as for B21
B39: GpH7-A5/GpH7-B3 variant A327_10E/GpL16-k0 (antibody, human IgG1, kappa)
heavy 1: not shown
heavy 2: not shown
light: B1 light
notes: as for B21
B40: GpH7-A5/GpH7-B3 variant D265_07I/GpL16-k0 (antibody, human IgG1, kappa)
heavy 1: not shown
heavy 2: not shown
light: B1 light
notes: as for B21
B41: GpH7-A5/GpH7-B3 variant D265_10E/GpL16-k0 (antibody, human IgG1, kappa)
heavy 1: not shown
heavy 2: not shown
light: B1 light
notes: as for B21

molecular target: T1, FcγRIIb; test: SPR (Biacore), binding relative to GpH7-A5/GpH7-B3/GpL16-k0 = 100

Row | He/Con_2b | Binder
1 | 210 % of control | B1
2 | 102 % of control | B2
3 | 251 % of control | B3
4 | 102 % of control | B4
5 | 105 % of control | B5
6 | 100 % of control | B6
7 | 100 % of control | B7
8 | 102 % of control | B8
9 | 104 % of control | B9
10 | 106 % of control | B10
11 | 112 % of control | B11
12 | 108 % of control | B12
13 | 100 % of control | B13
14 | 103 % of control | B14
15 | 104 % of control | B15
16 | 108 % of control | B16
17 | 218 % of control | B17
18 | 109 % of control | B18
19 | 103 % of control | B19
20 | 102 % of control | B20

molecular target: T2, FcγRIIb extracellular domain with …; test: SPR (Biacore), relative binding, GpH7-A5/GpH7-B3/GpL16-k0 = 100
Procedure: (§1) Analysis of interaction between objective antibody and the FcγR was carried out using Biacore T100 (GE Healthcare). HBS-EP+ (GE Healthcare) was used as the running buffer, and the measurement temperature was set to 25° C. Chips produced by immobilizing the antigen peptide by the amine coupling method to a Series S Sencor Chip CM5 (GE Healthcare), or alternatively, chips produced by allowing preliminarily biotinylated antigen peptides to interact with and immobilize onto a Series S Sensor Chip SA (certified) (GE Healthcare) were used. Antibodies of interest were captured onto an antigen peptide-immobilized chip, and allowed to interact to each FcγR diluted with running buffer. To regenerate and repeatedly use the chip, the antibodies captured on the chip were washed off by reacting 10 mM glycine-HCl, pH 1.5.
(§2) The FcγR-binding activity of each antibody was assessed primarily using as an indicator the FcγR-binding activity and dissociation constant for FcγR.

Row | He/Con_2b | Binder
21 | 51.5 % of control | B21
22 | 113 % of control | B22
23 | 14.9 % of control | B23
24 | 10 % of control | B24
25 | 127 % of control | B25
26 | 11.3 % of control | B26
27 | 3.2 % of control | B27
28 | 33.4 % of control | B28
29 | 19.9 % of control | B29
30 | 16 % of control | B30
31 | 0.6 % of control | B31
32 | 15 % of control | B32
33 | 71.9 % of control | B33
34 | 172 % of control | B34
35 | 4.6 % of control | B35
36 | 104 % of control | B36
37 | 38.3 % of control | B37
38 | 3.2 % of control | B38
39 | 140 % of control | B39
40 | 1.3 % of control | B40
41 | 38.2 % of control | B41

molecular target: T3, FcγRIIIa extracellular domain with C-terminal His tag (human, UniProt P08637 17-208); test: as above
T3 construct: extracellular domain; also called 3a; FcgRIIIa; not shown: His tag at the C terminus
T3 sequence (P08637 17-208): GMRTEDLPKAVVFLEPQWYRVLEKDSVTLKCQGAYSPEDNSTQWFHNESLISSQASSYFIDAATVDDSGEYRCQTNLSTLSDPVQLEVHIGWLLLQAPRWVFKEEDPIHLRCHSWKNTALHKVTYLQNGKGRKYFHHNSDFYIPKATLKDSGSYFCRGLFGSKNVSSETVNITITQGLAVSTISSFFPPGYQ
Procedure: as §1, §2

Row | He/Con_3a | Binder
42 | 24 % of control | B21
43 | 61.1 % of control | B22
44 | 2.5 % of control | B23
45 | 2.6 % of control | B24
46 | 42.4 % of control | B25
47 | 3.9 % of control | B26
48 | 0 % of control | B27
49 | 4.3 % of control | B30
50 | -1.7 % of control | B31
51 | 3.2 % of control | B32
52 | 83.7 % of control | B34
53 | 0 % of control | B35
54 | 89.1 % of control | B36
55 | 13.6 % of control | B37
56 | 0.6 % of control | B38
57 | 68.6 % of control | B39
58 | -0.8 % of control | B40
59 | 20.1 % of control | B41
